assay: soluble on expression in E. coli; label from the status in PepcDB or PDB records

| Sequence | soluble on expression in E. coli |
| --- | --- |
| MGSDKIHHHHHHMSTPVLNLDPDTLLMSSKDARAAAAPYAAEYQGRGPFNYGGYDNFLNPEILERVREELKQLPEAANSYDRPQERLKTSYVPERLPMYTRQLFYALNSRPMLAFIEELTGIKGLIPDPYFAGGGVHVVANGGHLDIHADFNHHAGLNLERRVNLLIYLNKDWREEYGGSFEVWDENMAGKLASYVPLFNRMCMFSTSSESWHGNPEPVNHPDGEPRMSIALYYYTATWDSTRKSHTTLFKPRPGTKDQRDRQVARRELLQDLLPPVLHRKLAWRLEKLGF | not soluble |
| MSLTNVAEDQLTAQAVAPPTEASAALEPALETPESPVETLKTSISASRRVRARLARRMTAQRSTTNPVLEPLVAVHREIYPKADLSILQRAYEVADQRHASQLRQSGDPYITHPLAVANILAELGMDTTTLVAALLHDTVEDTGYTLEALTEEFGEEVGHLVDGVTKLDRVVLGSAAEGETIRKMITAMARDPRVLVIKVADRLHNMRTMRFLPPEKQARKARETLEVIAPLAHRLGMASVKWELEDLSFAILHPKKYEEIVRLVAGRAPSRDTYLAKVRAEIVNTLTASKIKATVEGRPKHYWSIYQKMIVKGRDFDDIHDLVGVRILCDEIRDCYAAVGVVHSLWQPMAGRFKDYIAQPRYGVYQSLHTTVVGPEGKPLEVQIRTRDMHRTAEYGIAAHWRYKEAKGRNGVLHPHAAAEIDDMAWMRQLLDWQREAADPGEFLESLRYDLAVQEIFVFTPKGDVITLPTGSTPVDFAYAVHTEVGHRCIGARVNGRLVALERKLENGEVVEVFTSKAPNAGPSRDWQQFVVSPRAKTKIRQWFAKERREEALETGKDAMAREVRRGGLPLQRLVNGESMAAVARELHYADVSALYTAIGEGHVSAKHVVQRLLAELGGIDQAEEELAERSTPATMPRRPRSTDDVGVSVPGAPGVLTKLAKCCTPVPGDVIMGFVTRGGGVSVHRTDCTNAASLQQQAERIIEVLWAPSPSSVFLVAIQVEALDRHRLLSDVTRALADEKVNILSASVTTSGDRVAISRFTFEMGDPKHLGHLLNAVRNVEGVYDVYRVTSEGHHHHHH | not soluble |
| AMGVPCVEDEDFIQALDKMMLENLQQRSGESVKVHQLDVAIPLHLKSQLRKGPPLGGGEGEAESADTMPFVMLTRKGNKQQFKILNVPMSSQLAANH | soluble |
| MGSDKIHHHHHHMKRRDFLITSAAALSFLLSGCAIGDRVVEEPLTPKSNPPRKSVVYVLKTERREEAVSKLMQNFSDFEGSTVGLKANYNSADPFPASTHPKTLSAIVDVLKEQKAEVFMAERSGMGNTSAVLKTMGILDLAREKGFTVIDLDSYDGWVLHQPEDSHWKKGYPFADIFLTVDSVIQTCCLKTHRFGGHFTMSLKNSVGMVARRWKGHDYMSELHTSPHMRKMIAEINVSYSPKIVIMDAIKGFSHGGPERGTVIEPGLMIASNDRVAIDAVGVAILRIHGTTPEVSKGSVFEQEQIARAIEIGLSSGEFEIIPANDDAEKICSEIEAVLWG | not soluble |
| MKPALHAIDATLPAPPTYTPAGNECALFEHAWKRRVPLLLKGPTGCGKTRFVAHMAARLGLPLFTVSCHDDLTAADLTGRYLLKGGETVWVDGPLTRAVRQGGICYLDEVVEARKDVAVVLHPLADDRRVLPLERTGEELQAPPHFMLVVSYNPGYQSLLKALKPSTRQRFAAIEFGFLAPEQEIAVVAAESGLPSERVAPLVALAGRLRKLKGHDLEEGVSTRLLVYCASLISEGLPVRDAVLAGLIEPLTDDADVKAALIEVAGVVIGLEHHHHHH | soluble |
| MGSDKIHHHHHHMVKLKPKGPFTRIPRATTIFGAISNAIRLLYGRKEVEKFIAGFINDDAKITSAFPYDGETYFLPKPLSVDLVVKTLFETKKEDVKKVKKKDYIPLESFEKALRLEEFEVKELPYKVIELPKVSLDRVSNDSSLYFWDLVTFKENSGLYFLYDGSNKLFEKYIVPAMRLLEDQGIGGKGTWGYGLFEVEIEELEIEEPRENSYVTLSPFVPENETSLILWKIVKLGGWSQGKRRPKIPMVVEGSLSREDRGKMITLDLSLSYPVYVYARSFLVRASLPEEAVGHV | not soluble |
| MSNLNNLTSKILNDAEEKKKYILADAEAQKDKIISKKTNRAEADKEEIITKANIEAEVKKARIISNAKLSVRNDMLRAKQDVISKVFNEAIEKLQNLSNGDYKYYVISTLDSLELEGTEVIIINEKDKDIFSNEFLEALNKELESKGKKGSITLNMEGKFNGGFILDRNGIQINNTFEALINSLRGELEFEVNKVLFDLEHHHHHH | soluble |
